Assays:
[1] = target: T1, CD73-ND-his (human, UniProt P21589 27-317); test: ELISA, high plateau value (OD 450 nm)
T1 construct: Biotinylated and captured on streptavidin in the ELISA
T1 sequence: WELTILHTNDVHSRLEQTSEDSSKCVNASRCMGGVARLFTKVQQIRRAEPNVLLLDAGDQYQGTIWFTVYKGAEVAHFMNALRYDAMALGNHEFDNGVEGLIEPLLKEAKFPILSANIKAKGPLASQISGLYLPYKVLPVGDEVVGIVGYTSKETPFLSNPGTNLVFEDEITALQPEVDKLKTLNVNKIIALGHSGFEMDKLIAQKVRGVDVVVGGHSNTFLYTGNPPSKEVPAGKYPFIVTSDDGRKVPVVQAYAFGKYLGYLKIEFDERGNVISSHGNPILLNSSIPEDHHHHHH
Description: (§1) The ELISA plates were coated with SA protein diluted to 1.5 μg/mL in coating buffer (50 mM carbonate coating buffer, pH 9.6) and incubated overnight at 4° C. The supernatant was discarded, and the plates were washed three times with PBST. Then, 5% skimmed milk powder prepared with PBS was added for blocking and the plates were incubated for 2 h at 37° C. After washing the plates once with PBST, CD73-biotin protein (prepared by biotinylating CD73-His protein according to the EZ-Link NHS-Biotin Reagent instructions) was diluted to 0.5 μg/mL and added at 100 μL/well for incubation at room temperature for 1 h. The plates were washed three times with PBST, and the prepared murine-derived monoclonal antibodies against human CD73 were serially diluted with 1% BSA buffer prepared with PBST and added to the ELISA plates at 100 μl/well. The plates were incubated at 37° C. for 1 h. After washing the plates three times with PBST, HRP-labeled goat anti-mouse IgG secondary antibody was added and the plates were incubated for 30 min at 37° C. After washing the plates three times with PBST, the residual droplets were patted dry on absorbent paper as much as possible. Then, 100 μl of TMB color developing solution was added to each well, and the plates were incubated in the dark at room temperature for 5 min for color development. Subsequently, 50 μl of 2M H₂SO₄ stop solution was added to each well to terminate the substrate reaction. The OD values were read at 450 nm using a multimode microplate reader to analyze the binding ability of the tested antibodies to the target antigen human CD73-His.
(§2) Referring to the experimental method in Example 3, the affinity of 48A11-HuV33 for various mutant proteins of CD73-ND was determined. The SA protein was diluted to 1 μg/mL for coating the ELISA plates, and the biotinylated CD73 protein (CD73-biotin) was used at a concentration of 0.1 μg/mL.

[2] = target: T2, CD73-ND-E143A (human, UniProt P21589 27-317); test: ELISA, high plateau value (OD 450 nm)
T2 construct: Alanine mutant of CD73-ND
T2 sequence: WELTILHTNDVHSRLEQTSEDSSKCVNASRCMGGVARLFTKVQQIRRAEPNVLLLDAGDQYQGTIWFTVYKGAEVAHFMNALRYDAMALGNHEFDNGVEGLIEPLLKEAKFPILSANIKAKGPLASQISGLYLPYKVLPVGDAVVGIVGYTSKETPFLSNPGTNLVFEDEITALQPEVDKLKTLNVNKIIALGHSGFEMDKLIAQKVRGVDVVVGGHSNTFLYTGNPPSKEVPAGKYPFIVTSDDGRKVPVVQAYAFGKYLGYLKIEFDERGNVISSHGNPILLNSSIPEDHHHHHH
Description: as §1, §2

[3] = target: T3, CD73-ND-L181A (human, UniProt P21589 27-317); test: ELISA, high plateau value (OD 450 nm)
T3 construct: Alanine mutant of CD73-ND
T3 sequence: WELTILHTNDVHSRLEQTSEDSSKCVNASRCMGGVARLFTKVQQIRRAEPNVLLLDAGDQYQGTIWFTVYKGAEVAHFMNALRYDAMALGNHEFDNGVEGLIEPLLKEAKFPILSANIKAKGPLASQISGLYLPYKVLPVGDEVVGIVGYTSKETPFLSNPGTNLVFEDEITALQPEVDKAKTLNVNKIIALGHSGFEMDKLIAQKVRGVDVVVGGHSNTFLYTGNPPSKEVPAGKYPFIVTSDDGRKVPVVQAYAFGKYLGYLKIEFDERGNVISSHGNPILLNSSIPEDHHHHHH
Description: as §1, §2

[4] = target: T4, CD73-ND-T183A (human, UniProt P21589 27-317); test: ELISA, high plateau value (OD 450 nm)
T4 construct: Alanine mutant of CD73-ND
T4 sequence: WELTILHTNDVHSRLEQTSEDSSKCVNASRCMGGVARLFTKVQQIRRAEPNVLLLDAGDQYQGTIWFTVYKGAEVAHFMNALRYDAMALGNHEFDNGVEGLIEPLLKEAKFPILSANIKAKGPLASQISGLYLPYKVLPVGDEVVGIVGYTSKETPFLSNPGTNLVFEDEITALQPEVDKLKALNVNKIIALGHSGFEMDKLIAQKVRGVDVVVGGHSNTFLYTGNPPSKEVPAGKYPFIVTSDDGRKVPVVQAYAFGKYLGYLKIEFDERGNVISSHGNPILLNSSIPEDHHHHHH
Description: as §1, §2

[5] = target: T1, CD73-ND-his; test: ELISA, biotinylated antigen on streptavidin plate
Description: as §1, §2

[6] = target: T5, CD73-ND-V144A (human, UniProt P21589 27-317); test: ELISA, biotinylated antigen on streptavidin plate
T5 construct: Alanine mutant of CD73-ND
T5 sequence: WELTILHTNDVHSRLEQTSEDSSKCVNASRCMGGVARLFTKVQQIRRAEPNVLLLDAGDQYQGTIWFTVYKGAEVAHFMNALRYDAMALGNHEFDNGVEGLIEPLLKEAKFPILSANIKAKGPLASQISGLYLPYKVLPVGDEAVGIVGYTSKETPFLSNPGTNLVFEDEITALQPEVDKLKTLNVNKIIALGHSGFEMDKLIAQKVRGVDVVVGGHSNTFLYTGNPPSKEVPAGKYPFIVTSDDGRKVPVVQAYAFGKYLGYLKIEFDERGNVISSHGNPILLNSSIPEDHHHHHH
Description: as §1, §2

[7] = target: T3, CD73-ND-L181A; test: ELISA, biotinylated antigen on streptavidin plate
Description: as §1, §2

[8] = target: T4, CD73-ND-T183A; test: ELISA, biotinylated antigen on streptavidin plate
Description: as §1, §2

B1: 48A11-HuV33 (antibody, human IgG4, V domains shown)
VH: QVQLVQSGAEVKKPGASVKVSCKASGYTFTSYWMHWVRQAPGQGLEWIGEINPSIGRTNYNEKFKSRVTLTRDTSTSTAYMELSSLRSEDTAVYYCARRVYGTMDYWGQGTLVTVSS
VL: DIQMTQSPSSLSASVGDRVTITCKASQDINSYLSWFQQKPGKSPKLLIYRANIWVDGVPSRFSGSGSGQDYTFTISSLQPEDIATYYCLQYDELYTFGQGTKVEIK
notes: Humanized
- Top [1]: 1.98
- Top [2]: 1.77
- Top [3]: 1.05
- Top [4]: 1.98
- EC50 [5]: 0.117 nM
- EC50 [6]: 0.29 nM
- EC50 [7]: 0.226 nM
- EC50 [8]: 0.159 nM
